For this assay, the target named is GST-PHD^RACK7 (human). Put plainly: MST.

The Kd is the concentration at which binding is half-saturated.

Consider “H3.3G34R peptide (amino acids 22 to 44) (from UniProt P84243 23-45)”, for which the Kd was 6 µM.

For the origin of these results see publication PMC7439511.
